Measurements as given in PMC4827770 (Journal of molecular recognition : JMR, 2008).
Read-outs that look alike come from different tables or passages of the source.

Assays:
[1] = target: T1, murine JAM-A on L929 (L) cells (murine (endogenous in L929 cells), UniProt O88792 27-300); experiment: single molecule force spectroscopy
T1 sequence (looked up): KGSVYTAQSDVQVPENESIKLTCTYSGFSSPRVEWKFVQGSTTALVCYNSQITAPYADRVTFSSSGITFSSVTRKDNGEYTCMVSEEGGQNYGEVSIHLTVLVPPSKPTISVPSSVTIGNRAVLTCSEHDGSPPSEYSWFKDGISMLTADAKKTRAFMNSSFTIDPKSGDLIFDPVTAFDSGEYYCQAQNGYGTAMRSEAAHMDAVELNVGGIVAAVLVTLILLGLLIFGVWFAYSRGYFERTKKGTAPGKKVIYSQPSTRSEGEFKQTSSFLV

[2] = target: T1, murine JAM-A on L929 (L) cells; experiment: single molecule force spectroscopy; remark: listed apart in the source

B1: chimeric murine JAM-A/Fc fusion protein (Fc fusion)
chain: KGSVYTAQSDVQVPENESIKLTCTYSGFSSPRVEWKFVQGSTTALVCYNSQITAPYADRVTFSSSGITFSSVTRKDNGEYTCMVSEEGGQNYGEVSIHLTVLVPPSKPTISVPSSVTIGNRAVLTCSEHDGSPPSEYSWFKDGISMLTADAKKTRAFMNSSFTIDPKSGDLIFDPVTAFDSGEYYCQAQNGYGTAMRSEAAHMDAVELNVGG
[1]
  koff: 0.688 ± 0.349 s⁻¹

B2: reovirus attachment protein σ1 head domain plus a short region of the tail (residues 293–455) (domain or fragment)
chain: SPNLRYPIADVSGGIGMSPNYRFRQSMWIGIVSYSGSGLNWRVQVNSDIFIVDDYIHICLPAFDGFSIADGGDLSLNFVTGLLPPLLTGDTEPAFHNDVVTYGAQTVAIGLSSGGAPQYMSKNLWVEQWQDGVLRLRVEGGGSITHSNSKWPAMTVSYPRSFT
[2]
  koff: 0.067 ± 0.041 s⁻¹
